Results from US20250163164A1 (LANOVA MEDICINES DEVELOPMENT, published 2025).
Values joined by “and” are separate entries in the source; they are usually repeats but may differ in a detail not shown here. Equal entries are not always repeated.

T1: human interleukin 13 receptor subunit alpha 2 (IL-13RA2) (human, UniProt Q14627 27-380)
T1 construct: whole, on cells; also called IL-13Rα2; CD213A2
T1 sequence (looked up): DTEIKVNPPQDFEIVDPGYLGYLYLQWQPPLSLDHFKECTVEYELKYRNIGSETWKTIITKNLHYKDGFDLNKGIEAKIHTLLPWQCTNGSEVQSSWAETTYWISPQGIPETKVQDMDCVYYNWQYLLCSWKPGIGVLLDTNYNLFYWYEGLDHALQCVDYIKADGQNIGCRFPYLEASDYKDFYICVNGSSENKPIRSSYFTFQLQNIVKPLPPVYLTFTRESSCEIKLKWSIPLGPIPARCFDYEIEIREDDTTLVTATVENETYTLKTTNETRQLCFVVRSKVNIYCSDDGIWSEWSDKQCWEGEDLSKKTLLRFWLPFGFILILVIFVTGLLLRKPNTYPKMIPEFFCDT


Target: T1, human interleukin 13 receptor subunit …
Assay: FACS on A375 cells
Procedure: (§1) A375 cells that endogenously expressed IL-13RA2, were harvested from flasks. 100 μl of 1×10⁶ cells/ml of cells were incubated with primary humanized antibodies in 4-fold serial dilutions starting from 200 nM to 0.003 nM for 30 minutes on ice. After being washed with 200 μl of FACS buffer twice, cells were incubated with secondary antibody for 30 minutes on ice. Cells were washed with 200 μl of FACS buffer twice and analyzed by FACS.

Binder	EC50
73A11E2 H3L4 hIgG1 (antibody, V domains shown, humanized, hIgG1) VH: QVQLVQSGAEVVKPGASVKLSCKASGFTFSSYGMSWVRQAPGQGLEWVATISGGGSYTYYPESVKGRFTITRDNSTSTLYMEMRSLRSDDTAVYYCARRDLRSAMDYWGQGTLVTVSS VL: DIVMTQSPLSLPTTLGQPVSVSCKASQNVDINVAWYQQRPGQSPRALIYSASYRYSGVPDRFSGSGSGTDFTLTISRVEAEDVAVFFCQQYNAYPLTFGGGTKLEIK	1.16 nM and 1.29 nM
73A11E2 H4L1 hIgG1 (antibody, V domains shown, humanized, hIgG1) VH: QVKLVESGAEVVKPGASVKLSCKASGFTFSSYGMSWVRQAPGQRLEWVATISGGGSYTYYPESVKGRFTITRDNSTSTLYLEMRSLRSDDTAVYYCARRDLRSAMDYWGQGTLVTVSS VL: DVVMTQSPLSLPVTLGQPASISCKASQNVDINVAWFQQRPGQSPRRLIYSASYRYSGVPDRFSGSGSGTDFTLKISRVEAEDVGVYYCQQYNAYPLTFGQGTKLEIK	0.943 nM and 1.2 nM
73A11E2 H4L4 hIgG1 (antibody, V domains shown, humanized, hIgG1) VH: QVKLVESGAEVVKPGASVKLSCKASGFTFSSYGMSWVRQAPGQRLEWVATISGGGSYTYYPESVKGRFTITRDNSTSTLYLEMRSLRSDDTAVYYCARRDLRSAMDYWGQGTLVTVSS VL: DIVMTQSPLSLPTTLGQPVSVSCKASQNVDINVAWYQQRPGQSPRALIYSASYRYSGVPDRFSGSGSGTDFTLTISRVEAEDVAVFFCQQYNAYPLTFGGGTKLEIK	1.12 nM and 1.51 nM
73A11E2 H4L3 hIgG1 (antibody, V domains shown, humanized, hIgG1) VH: QVKLVESGAEVVKPGASVKLSCKASGFTFSSYGMSWVRQAPGQRLEWVATISGGGSYTYYPESVKGRFTITRDNSTSTLYLEMRSLRSDDTAVYYCARRDLRSAMDYWGQGTLVTVSS VL: DIVMTQSPLSLPTTLGQPASISCKASQNVDINVAWYQQRPGQSPRALIYSASYRYSGVPDRFSGSGSGTDFTLTISRVEAEDVGVFYCQQYNAYPLTFGGGTKLEIK	0.909 nM and 1.45 nM
73A11E2 H4L2 hIgG1 (antibody, V domains shown, humanized, hIgG1) VH: QVKLVESGAEVVKPGASVKLSCKASGFTFSSYGMSWVRQAPGQRLEWVATISGGGSYTYYPESVKGRFTITRDNSTSTLYLEMRSLRSDDTAVYYCARRDLRSAMDYWGQGTLVTVSS VL: DIVMTQSPLSLPVTLGQPASISCKASQNVDINVAWYQQRPGQSPRALIYSASYRYSGVPDRFSGSGSGTDFTLKISRVEAEDVGVFYCQQYNAYPLTFGQGTKLEIK	1.12 nM and 1.31 nM

Target: T1, human interleukin 13 receptor subunit …
Assay: FACS on A375 cells
Remark: another data set of the same source
Procedure: as §1, with “expressed IL-13RA2” for “expressed IL-13RA2,”, “primary” for “primary humanized”, “from 100” for “from 200”, “to 0.006” for “to 0.003”

Binder	EC50	Top (MFI)
62A8D8 (antibody, V domains shown, purified mouse antibody) VH: EVKLVESGGGLVKPGGSLKLSCAASGFTFSSYGMSWVRQTPEKRLEWVATISGGGSYTYYPDSVKGRFTISRDNAKNNLYLQMSSLRSEDTALYYCARRDLRSAMDYWGQGTSVTVSS VL: DIVMTQSQKFMSTSVGDRVSVTCKASQNVDINVAWYQQKPGQSPKALIYSASYRYSGVPDRFTGSGSGTDFTLTISNVQSEDLAEFFCQQYNNYPLTFGGGTKLEIK	0.9 nM	334000 MFI
42E3C4 (antibody, V domains shown, purified mouse antibody) VH: EVKLVESGGGLVRPGGSLKISCAASGFTFSTYGMSWVRQTPEKRLEWVATISGGGSYTYYPDSVKGRFTISRDNAKNNLYLQMSSLRSEDTALYYCARRDLRSAMDYWGQGTSVTVSS VL: DIVMTQSQKFMSTSVGDRVSVTCKASQNVDINVAWYQQKPGQSPKALIYSASFRYSGVPDRFTGSGSGTDFTLTISNVQSEDLAEYFCQQYNSYPLTFGGGTKLEIK	0.52 nM	235000 MFI
54A4F7 (antibody, V domains shown, purified mouse antibody) VH: EVKLVESGGGLVKPGGSLKLSCAASGFTFSSYGMSWVRQTPEKRLEWVATISGGGSYTYYPDSVKGRFTISRDNAKNNLYLQMSSLRSEDTALYYCARRDLRSAMDHWGQGTSVTVSS VL: DIVMTQSQKFMSTSVGDRVSVTCRASQNVDINVAWYQQKPGQSPKSLIYSASYRYSGVPDRFTGSGSGTDFTLTISNVQSEDLAEYFCQQYNSYPLTFGGGTKLEIR	0.84 nM	268000 MFI
